Substrate in series [1]: O=c1c(-c2ccc(O)cc2)coc2cc(O)ccc12
The series can be described thus: HPLC glucosylation assay. The class given is biochemical, Pueraria montana. The following applies: UDP-glucose co-substrate (5 mM in the activity assay), 50 mM Tris-HCl pH 8.0, 30°C.

Substrate in series [2]: O=c1c(-c2ccc(O)cc2)coc2cc(O)cc(O)c12
Briefly: HPLC glucosylation assay. The class given is biochemical, Pueraria montana. The settings on record: UDP-glucose co-substrate (5 mM in the activity assay), 50 mM Tris-HCl pH 8.0, 30°C.

B1: PlUGT57 (Pueraria montana var. lobata) (protein)
chain: MGSEAPIHVLMVSYPAQGHINPLLRLGKCLAAKGLFVTFTTSETAGKDMRKANNITDKSVIPVGDGFLKFDFFEDGMADDDVSKKKSLSDVSAQLELVGKQYVSQMIKKHAESHHPISCIINNPFVPWVCDVAAEHAIPSAMLWIQSSAVFTAYYSYFYKLVSFPSDADPYVDVQLSSVVLKHNEVPDFLHPFSPYRFLGTLILEQFKNLSKPFCVLVDSFEELEHDYIDYLSKFLDIRPVGPLFKTPIATGTSDIRGDFMKSDDCIEWLNSRAPASVVYISFGSIVYLPQEQVTEIAHGLLNSHVSFLWVLKPPPKGYGVPPHVLPDGFFEGTRDKGKVVQWSPQEEVLAHPSVACFLTHCGWNSSMEALTLGMPMLTFPAWGDQVTNAKFLVDVFGVGIKLGYGHAAKKVVSREEVKKCLLEATVGPKAEELKQISFKWKKAAEAAVAANGSSARNLDAFMKDIKKRGAVGVNEI
notes: full-length ORF (464-477 residues range for the three), GST fusion in pGEX-2T (given as C-terminal fusion with GST tag), E. coli BL21, glutathione Sepharose purified
Broadly, the Km is the concentration of substrate that gives half-maximal velocity. The term kcat denotes the number of substrate molecules converted per active site and unit of time at saturation. Usually kcat/Km stands for the turnover number divided by the Michaelis constant. As for B1, in the series “HPLC glucosylation assay [1]”, the Km worked out at 16.3 ± 1.87 µM, the kcat worked out at 0.034 ± 0.0009 s⁻¹ and the catalytic efficiency (kcat/Km) stood at 2100 M⁻¹ s⁻¹. Besides, in “HPLC glucosylation assay [2]”, the Michaelis-Menten constant (Km) was 7.68 ± 3.58 µM, the kcat was 0.11 ± 0.01 s⁻¹ and the kcat/Km came to 13700 M⁻¹ s⁻¹.

B2: PlUGT4 (Pueraria montana var. lobata) (protein)
chain: MEKPHIAVVPSPGFTHLVPILEFSKRLLHLHPEFHITCFIPSVGSPPSSSKAYLQTLPPTITSIFLPPITLDDVPDPSILALQIELSVNLSLPYIKQELESLCSRAKVVALVVDVFANGALDFAKELNLLSYIYLPQSAMLLSLYFYSTKLDEILSSAFRDLTKPIEIPGCVPIHNKDLPIHFQNLSSIGYKGFLERSKRFHVPDGVFMNTFLELEPGAIRALQELVKGKPKVYPVGPIIQMGSVGHENRVECLTWLDKQQEPNSVLYVSFGSGGTLSQEQLNELAFGLELSGQKFLWVVRAPSSVATVGYFCAETKDPLEFLPHGFLERTKEQGLVVPSWAPQIQVLSHGATGGFLSHCGWNSVLESVVQGVPVITWPLFAEQSLNAAMLTDDLKVALRPKVNESGLAEREEIAKVVRGLMEGNEGMEIRKRMGLLKIAAANAIKEDGSSTKTLSEVATSSRGF
notes: as for B1
Regarding B2, in the series “HPLC glucosylation assay [1]”, the Km amounted to 110.8 ± 36.4 µM, the kcat was found to be 0.0075 ± 0.0009 s⁻¹ and the kcat/Km came out at 67.1 M⁻¹ s⁻¹. Moreover, in the series “HPLC glucosylation assay [2]”, the Km was 87.3 ± 38.9 µM, the kcat is 0.014 ± 0.0021 s⁻¹ and the kcat/Km was determined as 156 M⁻¹ s⁻¹.

These data come from paper PMC6362427, “Identification of Three (Iso)flavonoid Glucosyltransferases From Pueraria lobata” (Frontiers in Plant Science, 2019).
